# Assay results from patent US20170355763A1 (published 2017).
# T1: purified, recombinant human IL-31 fused at the C-terminal with a peptide consisting of the sequence EYMPME … (human, UniProt Q6EBC2 27-164)
# T1 construct: also called human IL-31-CEE; rIL31
# T1 sequence: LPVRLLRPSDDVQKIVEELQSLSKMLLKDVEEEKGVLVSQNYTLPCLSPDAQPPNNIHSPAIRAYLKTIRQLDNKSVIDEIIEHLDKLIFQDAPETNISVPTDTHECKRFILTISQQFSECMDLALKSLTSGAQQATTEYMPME
# B1: mouse anti-human IL-31 mAb 294.144.3.5 (antibody, mouse IgG1, V domains shown)
# VL: ENVLTQSPAIMSASPGERVTMTCSASSSVSYMHWYQQKSSNSPKLWIYDTTKLASGVPGRFSGSGSGNSYSLTISSMEAEDVATYFCFQGSEHPLTFGGGTTLEI
# VH: QVQLQQSGPELMKPGASVKISCKATGYTFSTYWIEWIKQRPGHGLEWIGEILPGRGTTNYNAKFQGKATFTAETSSNTAYMQLSSLTSEDSAVYYCTTESKLGDDDYWQGTTLTVSS
# notes: Mouse IgG1; also called ATCC PTA-6873
# Molecular target: T1, purified, recombinant human IL-31 fused …
# Assay: capture ELISA: mAb of supernatant captured on anti-mouse IgG Fc, biotinylated IL-31-CEE
# Method: These new supernatants were tested using the cell-based neutralization assay (serial 3-fold dilutions starting with neat supernatant and proceeding to a final 1:243 dilution) as well as a “capture” style ELISA assay similar to that used in the development of the rat anti-murine IL-31 mAbs with the following differences; 1) sheep anti-mouse IgG, Fc specific antibody (Jackson Immunoresearch) (1 ug/mL) as plate coating antibody, 2) plates blocked once with PBS-Tween+1% BSA for 1 hr, 3) a single titration of each supernatant added to wells (serial 3-fold dilutions starting with neat supernatant and proceeding to a final 1:2187 dilution), and 4) addition of biotinylated IL-31-CEE (3:1 molar ratio of biotin:protein), 200 ng/mL. This assay was felt to be more pertinent than the binding of antibody to plate bound IL-31-CEE as it assessed the ability of antibody to bind to IL-31-CEE in solution, a property essential to a good antibody for sandwich style ELISAs. It was in fact observed that a number of the master wells supernatants containing antibody that bound well to plate bound IL-31-CEE poorly recognized this molecule in solution.
# To reduce the number of hybridomas going into further subcloning, two new assays were performed with exhausted supernatant from each of the selected first round clones. […]
binder,measurement,value
B1,EC50,0.0134 mg/L
